Results published in patent US9518103B2, “Optogenetic probes for measuring membrane potential” (President and Fellows of Harvard College, priority 2014, dated 2016).
Positions count from the first letter of the chain named. In names and notes the source's numbering stands. Several values for one entry are separate records, joined by “and”; a condition that tells them apart may be missing. Equal values may be shown once. Read-outs that look alike come from different tables or passages of the source.

B1: QuasAr1: Archaerhodopsin 3 variant with mutations P60S, T80S, D95H, D106H, F161V; genetically encoded voltage indicator (protein)
chain: MDPIALQAGYDLLGDGRPETLWLGIGTLLMLIGTFYFLVRGWGVTDKDAREYYAVTILVSGIASAAYLSMFFGIGLTEVSVGGEMLDIYYARYAHWLFTTPLLLLHLALLAKVDRVTIGTLVGVDALMIVTGLIGALSHTAIARYSWWLFSTICMIVVLYVLATSLRSAAKERGPEVASTFNTLTALVLVLWTAYPILWIIGTEGAGVVGLGIETLLFMVLDVTAKVGFGFILLRSRAILGDTEAPEPSAGADVSAAD
B2: QuasAr2: Archaerhodopsin 3 variant with mutations P60S, T80S, D95Q, D106H, F161V; genetically encoded voltage indicator (protein)
chain: B1 chain with H95Q

Key:
[1] = Quantum yield of solubilized protein (Cy5 reference); assay type: physicochemical; conditions: for Quantum yield / Quantum yield relative to Arch D95N: excitation at 600 nm
Procedure: Solubilization and spectroscopic characterization of QuasAr1 and QuasAr: E. coli expressing QuasAr1 and QuasAr2 were grown in 12 mL LB medium with 200 μg/ml ampicillin overnight. The next day, 12 mL of liquid LB medium containing 50 μM retinal, 200 μg/ml ampicillin and 0.1% arabinose was added into the overnight culture, followed by additional incubation at 37° C. for 4 hours. The cell pellets were collected by centrifugation and lysed by suspension in B-PER solution (Pierce). The cytoplasmic fraction was discarded after centrifugation and the colored insoluble fraction was resuspended in phosphate buffered saline (PBS) containing 1.5% n-dodecyl-β-D-maltopyranoside (Affymetrix, Inc.). The suspension was homogenized by an ultrasonic homogenizer and centrifuged (17,000 g for 15 mins, 4° C.). The solubilized protein in the supernatant was used for in vitro spectroscopic characterization.
Absorption spectra were recorded on a DU-800 UV-visible spectrophotometer (Beckman) and fluorescence spectra were recorded on a Safire2 plate reader (Tecan). Cy5 carboxylic acid (Cyandye) was used as the reference for quantum yield measurement. Quantum yield measurements were performed on a series of dilutions of each protein solution and standard, with absorbance values ranging from 0.01 to 0.05 at 600 nm. The fluorescence emission spectra of each dilution were recorded with excitation at 600 nm and the total fluorescence intensities obtained by integration. Integrated fluorescence intensity vs. absorbance was plotted for each protein and each standard. Quantum yields, Φ, were determined from the slopes (S) of each line using the equation: Φprotein=Φstandard×(Sprotein/Sstandard).

[2] = tested on: HEK293T cells; assay: Simultaneous whole-cell patch clamp electrophysiology and fluorescence in HEK cells (brightness, voltage sensitivity, speed); assay type: cell-based; conditions: for Brightness (λexc = 640 nm) 0.7 W/cm^2 / Brightness (λexc = 640 nm) 800 W/cm^2 / Sensitivity (ΔF/F per 100 mV): HEK293 cells; for voltage sensitivity (ΔF/F per 100 mV) / brightness relative to wild-type Arch: HEK cells; for brightness compared with corresponding double mutants: eGFP fusions in HEK cells, exc. 640 nm
Procedure: Simultaneous electrophysiology and fluorescence in HEK cells: HEK293T cells (ATCC CRL-11268) were cultured and transfected following standard protocols.^10 Briefly, HEK-293 cells were grown at 37° C., 5% CO2, in DMEM supplemented with 10% FBS and penicillin-streptomycin. Plasmids were transfected using Transit 293T (Mirus) following the manufacturer's instructions, and assayed 48 hours later. The day before recording, cells were re-plated onto glass-bottom dishes (MatTek) at a density of ˜10,000 cells/cm^2.
Cells were supplemented with retinal by diluting stock retinal solutions (40 mM, DMSO) in growth medium to a final concentration of 5 μM, and then returning the cells to the incubator for 0.5-1 hour. All imaging and electrophysiology were performed in Tyrode buffer (containing, in mM: 125 NaCl, 2.5 KCl, 3 CaCl2, 1 MgCl2, 10 HEPES, 30 glucose pH 7.3, and adjusted to 305-310 mOsm with sucrose). A gap junction blocker, 2-aminoethoxydiphenyl borate (50 μM, Sigma), was added to eliminate electrical coupling between cells.
Filamented glass micropipettes (WPI) were pulled to a tip resistance of 5-10 MΩ, and filled with internal solution containing 125 mM potassium gluconate, 8 mM NaCl, 0.6 mM MgCl2, 0.1 mM CaCl2, 1 mM EGTA, 10 mM HEPES, 4 mM Mg-ATP, 0.4 mM Na-GTP (pH 7.3); adjusted to 295 mOsm with sucrose. Pipettes were positioned with a Sutter MP285 manipulator. Whole-cell, voltage and current clamp recordings were acquired using an […] 700B amplifier (Molecular Devices), filtered at 2 kHz with the internal Bessel filter and digitized with a National Instruments PCIE-6323 acquisition board at 5-10 kHz. Data was only acquired from HEK cells having reversal potentials between −10 and −40 mV, access resistance<25 MΩ and membrane resistance>0.5 GΩ.
Simultaneous whole-cell patch clamp recordings and fluorescence recordings were acquired on a home-built, inverted epifluorescence microscope, described previously^10 and described below in “Apparatus”. For step response measurements, voltage clamp electronics were compensated 90-95%. We examined variants of QuasAr1 with mutations at position 95 (Asn, Cys, Gin, His and Tyr) and position 106 (Arg, Asp, Asn, Cys, Glu, His, Lys and Tyr). These experiments confirmed that histidine at position 106 provided undetectable photocurrent, and the best combination of improved voltage sensitivity, and fast kinetics.
We compared the fluorescence, voltage sensitivity, and speed of the QuasArs to wild-type Arch in HEK cells, using epifluorescence microscopy and whole-cell patch clamp electrophysiology. Under low intensity illumination (640 nm, 500 mW/cm^2), QuasAr1 was 15-fold brighter than wild-type Arch, and QuasAr2 was 3.3-fold brighter (FIG. 1B; Methods).

[3] = tested on: HEK293 cells; assay: Optical crosstalk of blue illumination into QuasAr fluorescence; assay type: cell-based; conditions: continuous 640 nm 300 W/cm^2
Text: FIGS. 5A-5B show the quantification of optical crosstalk of blue illumination into QuasAr fluorescence. Illumination sufficient to induce high-frequency trains of action potentials (488 nm, 140 mW/cm2) perturbed fluorescence of QuasArs by <1%. […] HEK293 cells expressing QuasAr1 or QuasAr2 were exposed to continuous excitation at 640 nm (300 W/cm^2) and pulses of illumination at 488 nm (50 ms, 5 Hz). The intensity of the blue pulses increased from 0.06 to 1.8 W/cm^2. […] Illumination with blue light at typical intensity used to excite a blue-light activator (CheRiff) (0.2 W/cm^2) increased QuasAr1 fluorescence by 1.1% and QuasAr2 fluorescence by 0.6%. Illumination at with blue light at 1 W/cm^2 increased QuasAr1 fluorescence by 3.4% and QuasAr2 fluorescence by 2.4%. Error bars represent s.e.m. for n=5 cells for each QuasAr.

[4] = tested on: cultured rat hippocampal neurons; conditions: for signal-to-noise ratio (SNR) for single APs: 640 nm; for photobleaching time constant: continuous illumination 640 nm; for broadening of optically recorded AP relative to electrical waveform at 70% maximum depolarization: room temperature, 2 kHz frame rate; for r.m.s. temporal jitter of AP timing relative to patch clamp: sub-frame interpolation
[5] = low intensity illumination (640 nm, 500 mW/cm^2)

| Molecule | fluorescence quantum yield enhanced relative to Arch(D95N) [1] [fold] | Quantum yield [1] | Quantum yield relative to Arch D95N [1] | τdown (+30 mV to −70 mV) % τ1 ([2]; 23° C.) [%] | τdown (+30 mV to −70 mV) τ1 ([2]; 23° C.) [ms] | τdown (+30 mV to −70 mV) τ2 ([2]; 23° C.) [ms] | τup (−70 mV to +30 mV) % τ1 ([2]; 23° C.) [%] | τup (−70 mV to +30 mV) τ1 ([2]; 23° C.) [ms] | τup (−70 mV to +30 mV) τ2 ([2]; 23° C.) [ms] | Brightness (λexc = 640 nm) 0.7 W/cm^2 ([2]; 23° C.) | Brightness (λexc = 640 nm) 800 W/cm^2 ([2]; 23° C.) | Sensitivity (ΔF/F per 100 mV) ([2]; 23° C.) [%] | step response time constant (single or first component) ([2]; 34° C., step −70 mV to +30 mV) [ms] | voltage sensitivity (ΔF/F per 100 mV) [2] [%] | brightness compared with corresponding double mutants [2] | brightness relative to wild-type Arch ([2]; high intensity (>100 W/cm^2)) | brightness relative to wild-type Arch [2, 5] [fold] | increase of fluorescence by blue light ([3]; 488 nm 0.2 W/cm^2) [%] | increase of fluorescence by blue light ([3]; 488 nm 1 W/cm^2) [%] | equivalent electrical noise level ([4]; 300 W/cm^2) [mV] | other results |
| --- | --- | --- | --- | --- | --- | --- | --- | --- | --- | --- | --- | --- | --- | --- | --- | --- | --- | --- | --- | --- | --- |
| B1 | 19 | 8 × 10^−3 | 19 | 88 | 0.07 | 1.9 | 94 | 0.05 | 3.2 | 15.2 | 10.3 | 33 | ~0.05 | 32±3 | significantly brighter than the corresponding double mutants | 2.5 fold | 15 | 1.1 | 3.4 | 4.3 | response faster than fastest previously reported GEVIs [2]: more than 10 fold; response time [2]: 50 μs; voltage sensitivity compared with QuasAr2 [2]: three-fold less than the sensitivity of QuasAr2; step response time constant (single or first component) ([2]; room temperature (23° C.), step −70 mV to +30 mV): < 0.05 ms and 0.053 ± 0.002 ms; signal-to-noise ratio (SNR) for single APs ([4]; 300 W/cm^2, 1 kHz frame rate): 21±2; signal-to-noise ratio (SNR) for single APs ([4]; 800 W/cm^2, 1 kHz frame rate): 32±4; equivalent electrical noise level ([4]; 800 W/cm^2): 3.0 mV; photobleaching time constant ([4]; 300 W/cm^2): 440 s; r.m.s. error in timing ([4]; optically induced APs, soma, sub-frame interpolation vs patch clamp): 54 μs; broadening of optically recorded AP relative to electrical waveform at 70% maximum depolarization ([4]; mean±s.d.): did not introduce detectable broadening; r.m.s. temporal jitter of AP timing relative to patch clamp [4]: 44 μs |
| B2 | 10 | 4 × 10^−3 | 10 | 80 | 1.0 | 15.9 | 68 | 1.2 | 11.8 | 3.4 | 3.4 | 90 | 0.3 ± 0.05 | 90±2 | significantly brighter than the corresponding double mutants | comparable | 3.3 | 0.6 | 2.4 | 2.2 | weight of first component of bi-exponential step response ([2]; 23° C.): 68%; weight of second component of bi-exponential step response ([2]; 23° C.): 32%; step response time constant (second component) ([2]; 23° C., step −70 mV to +30 mV): 11.8 ± 1.5 ms; step response time constant (second component) ([2]; 34° C.): 3.2 ± 0.4 ms; weight of first component of bi-exponential step response ([2]; 34° C.): 62%; weight of second component of bi-exponential step response ([2]; 34° C.): 38%; τdown (+30 mV to −70 mV) % τ1 ([2]; 34° C.): 73%; τdown (+30 mV to −70 mV) τ1 ([2]; 34° C.): 0.3 ms; τdown (+30 mV to −70 mV) τ2 ([2]; 34° C.): 4.0 ms; τup (−70 mV to +30 mV) % τ1 ([2]; 34° C.): 62%; τup (−70 mV to +30 mV) τ1 ([2]; 34° C.): 0.3 ms; τup (−70 mV to +30 mV) τ2 ([2]; 34° C.): 3.2 ms; single-trial SNR ([4]; 34° C., 640 nm 300 W/cm^2): 41±3; broadening of optically recorded AP relative to electrical waveform ([4]; 34° C., mean±s.d.): 180±120 μs; signal-to-noise ratio (SNR) for single APs ([4]; 300 W/cm^2, 1 kHz frame rate): 41±4; equivalent electrical noise level ([4]; 800 W/cm^2): 1.5 mV; photobleaching time constant ([4]; 300 W/cm^2): 1020 s; fidelity of AP reporting (red light phototoxicity test) ([4]; continuous illumination at 300 W/cm^2, 30 min): 100%; broadening of optically recorded AP relative to electrical waveform at 70% maximum depolarization ([4]; mean±s.d.): 650±150 μs; r.m.s. temporal jitter of AP timing relative to patch clamp [4]: 61 μs |
